US20160223529

B1: TVMV-AI-CalmodulinBinder (protein)
chain: SKALLKGVRDFNPISACVCLLENSSDGHSERLFGIGFGPYIIANQHLFRRNNGELTIKTMHGEFKVKNSTQLQMKPVEGRDIIVIKMAKDFPPFPQKLKFRQPTIKDRVCMVSTNFQQKSVSSLVSESSHIVHKEDTSFWQHWITTKDGQCGSPLVSIIDGNILGIHSLTHTTNGSNYFVEFPEKFVATYLDAADGWCKNWKFNADKISWGSFILWEDAPEDFMSGLVPRGVGREYVRFAPRWKKNFIAVSAANRFKKISSSGAL
B2: TVMV-PDZ^dom with C-terminal HCV-inducible AI-domain (protein)
chain: SGGSGGSMEIRVRVEKDPELGFSISGGVGGRGNPFRPDDDGIFVTRVQPEGPASKLLQPGDKIIQANGYSFINIEHGQAVSLLKTFQNTVELIIVREVSSGGRGGSGGSGGSGGSGGSGGSSKALLKGVRDFNPISACVCLLENSSDGHSERLFGIGFGPYIIANQHLFRRNNGELTIKTMHGEFKVKNSTQLQMKPVEGRDIIVIKMAKDFPPFPQKLKFRQPTIKDRVCMVSTNFQQKSVSSLVSESSHIVHKEDTSFWQHWITTKDGQCGSPLVSIIDGNILGIHSLTHTTNGSNYFVEFPEKFVATYLDAADGWCKNWKFNADKISWGSFILWEDAPESGGDEMEECASHLGSGREYVRFAPGSTHHHHHH
B3: HCV-SH3^dom with C-terminal TVMV-inducible AI-domain (protein)
chain: SMSTSGSGGAEYVRALFDFNGNDEEDLPFKKGDILRIRDKPEEQWWNAEDSEGKRGMIPVPYVEKYRPASASVSALIGGRGGSGGSGGSGGSGGSGGSAKGSVVIVGRINLSGDTAYSQQTRGAAGIAATSATGRDKNQVDGEVQVLSTATQSFLATCVNGVCWTVYHGAGSKTLAGPKGPITQMYTNVDQDLVGWPAPPGARSMTPCTCGSSDLYLVTRHADVIPVRRRGDSRGSLLSPRPVSYLKGSSGGPLLCPSGHVVGIFRAAVCTRGVAKAVDFIPVESMETTMRGGGGSGGETVRFQSGGSGGDELILCPLDLGGSGGTGHHHHHH

Legend:
[1] = target: Calmodulin
[2] = target: SH3^pep-EGFP-PDZ^pep

| Protein | TVMV protease activity (degradation of fluorogenic TVMV substrate peptide) [1] | HCV protease activity (quenched fluorescent HCV substrate) [2] |
| --- | --- | --- |
| B1 | releasing inhibition of the TVMV protease by the autoinhibitor peptide |  |
| B2 |  | resulting in reciprocal cleavage of the TVMV and HCV protease cleavage sites, thereby more fully activating both proteases |
| B3 |  | resulting in reciprocal cleavage of the TVMV and HCV protease cleavage sites, thereby more fully activating both proteases |
